Key:
[1] = molecular target: T1, DLL3 on tumor cells of the SHP-77 and NCI-H82 cell lines (UniProt Q9NYJ7 27-618, limits assumed); assay: flow cytometry on SHP-77 tumor cells, mean fluorescence; the legend gives no unit, nM is from the axis '[Minibody],nM'
T1 construct: whole, on cells; also called cellular targets
T1 sequence (looked up): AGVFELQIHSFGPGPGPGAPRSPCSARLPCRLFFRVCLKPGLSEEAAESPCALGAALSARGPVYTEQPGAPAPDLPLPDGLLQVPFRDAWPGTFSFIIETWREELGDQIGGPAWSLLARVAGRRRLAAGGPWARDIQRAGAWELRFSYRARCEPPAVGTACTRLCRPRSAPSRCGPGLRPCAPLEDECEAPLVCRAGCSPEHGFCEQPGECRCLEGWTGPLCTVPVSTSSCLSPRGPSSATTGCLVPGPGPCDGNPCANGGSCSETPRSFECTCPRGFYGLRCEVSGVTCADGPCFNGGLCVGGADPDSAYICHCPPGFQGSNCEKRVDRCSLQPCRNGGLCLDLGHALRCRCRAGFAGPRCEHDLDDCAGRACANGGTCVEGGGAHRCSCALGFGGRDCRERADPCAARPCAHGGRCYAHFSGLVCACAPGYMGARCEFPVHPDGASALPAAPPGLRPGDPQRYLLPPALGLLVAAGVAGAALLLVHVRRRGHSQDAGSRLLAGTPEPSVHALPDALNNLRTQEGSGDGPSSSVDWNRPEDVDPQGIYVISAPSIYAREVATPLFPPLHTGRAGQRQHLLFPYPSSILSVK
Protocol: (§1) As disclosed herein, the binding of constructs to cellular targets was assessed using flow cytometry. Stock of 2.5× serial dilution of minibodies were created starting from a concentration of 100 nM in 180 μl FACS buffer (PBS 2% FBS). Cells were added to a Corning V-bottom polypropylene cell culture plate at 200,000 cells/well. The cells were centrifuged at 100 rpm for 3 minutes and the supernatant discarded. The minibody dilution series were transferred to the plate containing cell pellets and incubated for 1 hr at 4° C. The plate was then washed 3 times with FACS buffer at 200 μl/well, discarding supernatant after each wash by centrifugation at 1000 rpm. 50 μl/well of detection antibody R&D AlexaFluor-647 Goat anti Human (H+L) was added at a 1:100 dilution in FACS buffer and incubated at 4° C. 1 hr. The plate was washed 3 times with FACS buffer at 200 μl/well, discarding supernatant after each wash by centrifuging at 1000 rpm. Cells were then fixed by adding 100 μl of 1% paraformaldehyde in PBS and incubating at room temperature for 15 minutes. 100 μl of PBS were added to each well and the plate was analyzed by flow cytometry using the allophycocyanin fluorescence setting.

[2] = molecular target: T2, his-tagged-DLL3 antigen (purified human/cynomolgus/dog/mouse/rat or minipig DLL3 antigen) (human/cynomolgus/dog/mouse/rat or …); assay: biolayer interferometry, his-tagged DLL3 on a Ni-NTA tip, minibody at 100 nM; the table gives no unit, nm is from the axis 'Binding (nm)'
T2 construct: Antigen loaded on nickel-NTA tips for biolayer interferometry; also called Delta-like protein 3
T2 sequence (Q9NYJ7 whole entry): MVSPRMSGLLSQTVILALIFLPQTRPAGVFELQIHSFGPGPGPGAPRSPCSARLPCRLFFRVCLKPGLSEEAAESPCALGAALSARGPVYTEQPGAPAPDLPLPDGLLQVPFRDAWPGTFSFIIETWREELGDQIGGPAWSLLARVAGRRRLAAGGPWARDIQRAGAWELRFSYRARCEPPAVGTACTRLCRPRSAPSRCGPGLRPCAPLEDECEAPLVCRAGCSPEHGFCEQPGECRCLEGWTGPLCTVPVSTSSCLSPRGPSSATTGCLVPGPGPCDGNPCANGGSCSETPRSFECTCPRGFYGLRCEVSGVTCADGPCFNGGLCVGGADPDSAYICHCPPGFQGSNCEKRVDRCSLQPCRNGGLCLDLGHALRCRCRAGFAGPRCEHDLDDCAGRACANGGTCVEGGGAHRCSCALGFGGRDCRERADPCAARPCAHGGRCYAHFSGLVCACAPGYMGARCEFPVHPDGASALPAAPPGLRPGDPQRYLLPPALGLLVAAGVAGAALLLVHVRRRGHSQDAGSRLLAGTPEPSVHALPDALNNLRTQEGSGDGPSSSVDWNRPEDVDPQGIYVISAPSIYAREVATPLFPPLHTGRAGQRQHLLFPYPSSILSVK
Protocol: (§2) As disclosed herein, the binding kinetics of the novel antigen binding constructs to a purified human/cynomolgus/dog/mouse/rat or minipig DLL3 antigen was assessed using biolayer interferometry (TABLE 9) (FIG. 9). The his-tagged-DLL3 antigen was diluted in phosphate buffer saline (PBS) at 10 μg/mL and loaded on a nickel-NTA tip until saturation. The on-rate (Kon) and off-rate (Koff), and the dissociation constant KD, where recorded on Octet BLItz instrument. Dilution samples of the antigen binding construct were prepared in PBS at concentrations between 100 nM and 0.1 nM, by 2.5× dilutions and binding curves recorded at each concentration. Off-rate curves were recorded by immersion of the tip in PBS.

[3] = molecular target: T3, purified human/cynomolgus/dog/mouse/rat or minipig DLL3 antigen (ELISA coat) (human/cynomolgus/dog/mouse/rat or …); assay: ELISA, plate coated with purified DLL3 antigen, HRP secondary (FIG. 8)
T3 construct: May be the same protein as the his-tagged antigen used for BLI
T3 sequence (Q9NYJ7 whole entry): as above
Protocol: (§3) Binding affinity of the novel antigen binding constructs to a purified human/cynomolgus/dog/mouse/rat or minipig DLL3 antigen was assessed using ELISA. For this assay, a 96 well ELISA plate was coated with the DLL3 antigen diluted to a concentration of […] in coating buffer (0.05M sodium carbonate-bicarbonate buffer, pH 9.6). 100 μl of this coating solution was added to each well in the plate and incubate at 4° C. overnight. The plate was washed 3 times with 300 μl per well of washing buffer (PBS with 0.05% Tween-20). After the last wash, the plate was blocked by adding to each well 200 μl of blocking buffer (PBS with 1% BSA) warmed to room temperature. The plate was then incubated at room temperature for 1 hour under gentle agitation. After blocking, the plate was washed 3 times with 300 μl per well of washing buffer. Dilution samples for each minibody were created by making 2.5× dilutions from a starting sample at 100 ng/mL, or 250 ng/mL, or 1000 ng/mL or 3000 ng/mL in 100 μL sample buffer (PBS with 1% BSA). The dilution samples were transferred to the assay plate and incubated at room temperature for 1 hour under gentle agitation. The plate was then washed 3 times with 300 μl per well of washing buffer.
Detection was performed by adding 100 μl of HRP labeled detection secondary antibody at an appropriate dilution and incubating the plate at room temperature for 1 hour under gentle agitation. The plate was then washed 3 times with 300 μl per well of washing buffer. For color development, 100 μl of TMB substrate regent, pre-warmed to room temperature, was added to the plate and incubated in the dark at room temperature for 15 min. The reaction was then stopped by adding 100 μl of 650 nm stop solution to the plate and mixed for 1 min at room temperature under gentle agitation. The plate is recorded by reading OD at 650 nm in a plate reader within 20 min after terminating the reaction.

[4] = molecular target: T3, purified human/cynomolgus/dog/mouse/rat …; assay: ELISA on plate-coated recombinant DLL3 antigen, A650 readout, panel with IAB57M1-7, IAB57M2-8, IAB57M1-3 and IAB57M2-6
Protocol: as §3, with “The dilution samples were transferred to the assay plate and incubated at room temperature for 1 hour under gentle agitation. The plate was then washed 3 times with 300 μl per well of washing buffer.” left out
Detection was performed by adding 100 μl of HRP labeled detection secondary antibody at an appropriate dilution and incubating the plate at room temperature for 1 hour under gentle agitation. […] The plate is recorded by reading OD at 650 nm in a plate reader within 20 min after terminating the reaction.

[5] = molecular target: T2, his-tagged-DLL3 antigen (purified …); assay: biolayer interferometry (Octet BLItz), his-tagged DLL3 on nickel-NTA tip, minibody in solution
Protocol: as §2

[6] = molecular target: T1, DLL3 on tumor cells of the SHP-77 and …; assay: flow cytometry on NCI-H82 tumor cells, mean fluorescence; the legend gives no unit, nM is from the axis '[Minibody],nM'
Protocol: as §1

B1: IAB57M1-3 (other)
chain: EIVMTQSPATLSVSPGERATLSCKASQSVSNDVVWYQQKPGQAPRLLIYDASNRYTGIPARFSGSGSGTEFTLTISSLQSEDFAVYYCQQDYTSPWTFGQGTKLEIKGSTSGGGSGGGSGGGGSSQVQLVQSGAEVKKPGASVKVSCKASGYTFTNYGMNWVRQAPGQGLEWMGWINTYTGEPTYADDFKGRVTMTTDTSTSTAYMELRSLRSDDTAVYYCARIGDSSPSDYWGQGTLVTVSSEPKSSDKTHTCPPCPPCGGGSSGGGSGGQPREPQVYTLPPSREEMTKNQVSLTCLVKGFYPSDIAVEWESNGQPENNYKTTPPVLDSDGSFFLYSKLTVDKSRWQQGNVFSCSVMHEALHNHYTQKSLSLSPG
notes: Signal peptide left out
Question: B1 was tested. Which EC50 [1] did it give?
Answer: The EC50 was 0.01 nM.

Question: And the R equilibrium [2]?
Answer: Its R equilibrium is 1.04 nm.

Question: And the EC50 [3]?
Answer: Its EC50 is 0.109 nM.

Question: And the “EC50 (read off the curve)” value [4]?
Answer: The value was roughly 0.1 nM.

Question: What about the Kd [5] of the same binder?
Answer: Its Kd is 4 nM.

Question: What about the koff [5] of the same binder?
Answer: The koff was 0.00239 s⁻¹.

Question: What about the kon [5] of the same binder?
Answer: The kon was 599000 M⁻¹ s⁻¹.

Question: And the EC50 [6]?
Answer: The EC50 was 0.04 nM.
